From patent US20230242607A1 (EUTILEX, published 2023)
Where two headings read alike, the source gives them in different places.

T1: IL2-RB (UniProt P14784 27-239, limits assumed)
T1 construct: Bought recombinant protein (Sino); also called CD122; IL-2Rβ
T1 sequence (looked up): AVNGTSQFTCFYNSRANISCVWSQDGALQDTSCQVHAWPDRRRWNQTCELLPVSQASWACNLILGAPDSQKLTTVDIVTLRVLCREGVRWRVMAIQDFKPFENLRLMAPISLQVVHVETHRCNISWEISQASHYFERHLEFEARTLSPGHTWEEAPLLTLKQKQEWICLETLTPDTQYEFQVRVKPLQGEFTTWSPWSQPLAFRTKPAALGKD

T2: IL2-RA (UniProt P01589 22-213, limits assumed)
T2 construct: Bought recombinant protein (Sino); also called CD25; IL-2Rα
T2 sequence (looked up): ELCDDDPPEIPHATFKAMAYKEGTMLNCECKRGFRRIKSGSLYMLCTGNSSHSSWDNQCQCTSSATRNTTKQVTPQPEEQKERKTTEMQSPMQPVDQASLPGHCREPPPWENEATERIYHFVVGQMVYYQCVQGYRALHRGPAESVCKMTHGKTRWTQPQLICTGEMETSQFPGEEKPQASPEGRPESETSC


What was measured:
Assay in all cases: SPR, Biacore T200; IL-2-Fc on CM5 chip, receptor injected; 1:1 model
[1] = target: T1, IL2-RB
Method: The affinity of IL-2 variants to IL-2 receptors, IL2-RA and IL2-RB, was analyzed using surface plasmon resonance (SPR). The IL-2 variants were diluted to a concentration of 2 ug/mL then immobilized on CM5 chip (GE Healthcare, Cat#BR-1005-30). The receptors IL-2RA or IL-2RB (Sino) were injected at concentrations 100, 50, 25, 12.5, 6.25, 3.125 nM with an association time of 150 seconds and dissociation time of 240 seconds. Biacore T200 (GE healthcare) was used to measure and analyze affinity of each IL-2 variant, where the results were analyzed with a 1:1 binding model by BIAevaluation software.

[2] = target: T2, IL2-RA
Method: (§1) The affinity of additional IL-2 variants to IL-2 receptors, IL2-RA and IL2-RB, was analyzed using surface plasmon resonance (SPR). The IL-2 variants were diluted to a concentration of 2 ug/mL then immobilized on CM5 chip (GE Healthcare, Cat#BR-1005-30). Biacore T200 (GE healthcare) was used to measure and analyze affinity of each IL-2 variant, where the results were analyzed with a 1:1 binding model by BIAevaluation software, as described in Example 4.

[3] = target: T1, IL2-RB; remark: listed apart in the source
Method: as §1

Row | Binder | Kd [1] | koff [1] | kon [1] | Kd [2] | koff [2] | kon [2] | Kd [3] | koff [3] | kon [3]
1 | IL2_V1 Fc fusion protein (Fc fusion) APTSSSTKKTQLQLEHLLLDLQMILNGINNYKNPKLTAMLTKKFYMPKKATELKHLQCLEEELKPLEEVLNLAQSKNFHLDPRDVVSNINVFVLELKGSETTFMCEYADETATIVEFLNRWITFCQSIISTLTGGGGSSNTKVDKRVEPKSCDKTHTCPPCPAPPVAGPSVFLFPPKPKDTLMISRTPEVTCVVVDVSHEDPEVQFNWYVDGVEVHNAKTKPREEQFNSTFRVVSVLTVVHQDWLNGKEYKCKVSNKGLPAPIEKTISKTKGQPREPQVYTLPPSREEMTKNQVSLTCLVKGFYPSDIAVEWESNGQPENNYKTTPPMLDSDGSFFLYSKLTVDKSRWQQGNVFSCSVMHEALHNHYTQKSLSLSPGK | 66.6 nM | 0.0116 s⁻¹ | 174000 M⁻¹ s⁻¹ | – | – | – | – | – | –
2 | IL2_V3 Fc fusion protein (Fc fusion) APTSSSTKKTQLQLEHLLLDLQMILNGINNYKNPKLTAMLTKKFYMPKKATELKHLQCLEEELKPLEEVLNLAQSKNFHFDPRDLVSNINVFVLELKGSETTFMCEYADETATIVEFLNRWITFCQSIISTLTGGGGSSNTKVDKRVEPKSCDKTHTCPPCPAPPVAGPSVFLFPPKPKDTLMISRTPEVTCVVVDVSHEDPEVQFNWYVDGVEVHNAKTKPREEQFNSTFRVVSVLTVVHQDWLNGKEYKCKVSNKGLPAPIEKTISKTKGQPREPQVYTLPPSREEMTKNQVSLTCLVKGFYPSDIAVEWESNGQPENNYKTTPPMLDSDGSFFLYSKLTVDKSRWQQGNVFSCSVMHEALHNHYTQKSLSLSPGK | 218 nM | 0.0179 s⁻¹ | 82400 M⁻¹ s⁻¹ | – | – | – | – | – | –
3 | IL2_V2 Fc fusion protein (Fc fusion) APTSSSTKKTQLQLEHLLLDLQMILNGINNYKNPKLTAMLTKKFYMPKKATELKHLQCLEEELKPLEEVLNLAQSKNFHFRPRDVVSNINVFVLELKGSETTFMCEYADETATIVEFLNRWITFCQSIISTLTGGGGSSNTKVDKRVEPKSCDKTHTCPPCPAPPVAGPSVFLFPPKPKDTLMISRTPEVTCVVVDVSHEDPEVQFNWYVDGVEVHNAKTKPREEQFNSTFRVVSVLTVVHQDWLNGKEYKCKVSNKGLPAPIEKTISKTKGQPREPQVYTLPPSREEMTKNQVSLTCLVKGFYPSDIAVEWESNGQPENNYKTTPPMLDSDGSFFLYSKLTVDKSRWQQGNVFSCSVMHEALHNHYTQKSLSLSPGK | 124 nM | 0.0158 s⁻¹ | 128000 M⁻¹ s⁻¹ | – | – | – | – | – | –
4 | IL2_V4 Fc fusion protein (Fc fusion) APTSSSTKKTQLQLEHLLLDLQMILNGINNYKNPKLTAMLTKKFYMPKKATELKHLQCLEEELKPLEEVLNLAQSKNFHFDPRDVISNINVFVLELKGSETTFMCEYADETATIVEFLNRWITFCQSIISTLTGGGGSSNTKVDKRVEPKSCDKTHTCPPCPAPPVAGPSVFLFPPKPKDTLMISRTPEVTCVVVDVSHEDPEVQFNWYVDGVEVHNAKTKPREEQFNSTFRVVSVLTVVHQDWLNGKEYKCKVSNKGLPAPIEKTISKTKGQPREPQVYTLPPSREEMTKNQVSLTCLVKGFYPSDIAVEWESNGQPENNYKTTPPMLDSDGSFFLYSKLTVDKSRWQQGNVFSCSVMHEALHNHYTQKSLSLSPGK | 29 nM | 0.00511 s⁻¹ | 176000 M⁻¹ s⁻¹ | – | – | – | 8.99 nM | 0.00532 s⁻¹ | 592000 M⁻¹ s⁻¹

Next, values leading:

Row | Kd [1] | koff [1] | kon [1] | Kd [2] | koff [2] | kon [2] | Kd [3] | koff [3] | kon [3] | Binder
5 | – | – | – | 6.75 nM | 0.000789 s⁻¹ | 117000 M⁻¹ s⁻¹ | 9.43 nM | 0.00492 s⁻¹ | 522000 M⁻¹ s⁻¹ | IL2_V4_F42A Fc fusion protein (Fc fusion) APTSSSTKKTQLQLEHLLLDLQMILNGINNYKNPKLTRMLTAKFYMPKKATELKHLQCLEEELKPLEEVLNLAQSKNFHFDPRDVISNINVFVLELKGSETTFMCEYADETATIVEFLNRWITFCQSIISTLTGGGGSSNTKVDKRVEPKSCDKTHTCPPCPAPPVAGPSVFLFPPKPKDTLMISRTPEVTCVVVDVSHEDPEVQFNWYVDGVEVHNAKTKPREEQFNSTFRVVSVLTVVHQDWLNGKEYKCKVSNKGLPAPIEKTISKTKGQPREPQVYTLPPSREEMTKNQVSLTCLVKGFYPSDIAVEWESNGQPENNYKTTPPMLDSDGSFFLYSKLTVDKSRWQQGNVFSCSVMHEALHNHYTQKSLSLSPGK
6 | – | – | – | 1230 nM | 0.00562 s⁻¹ | 4560 M⁻¹ s⁻¹ | 7.5 nM | 0.00504 s⁻¹ | 671000 M⁻¹ s⁻¹ | IL2_V4_R38A_F42A Fc fusion protein (Fc fusion) APTSSSTKKTQLQLEHLLLDLQMILNGINNYKNPKLTAMLTAKFYMPKKATELKHLQCLEEELKPLEEVLNLAQSKNFHFDPRDVISNINVFVLELKGSETTFMCEYADETATIVEFLNRWITFCQSIISTLTGGGGSSNTKVDKRVEPKSCDKTHTCPPCPAPPVAGPSVFLFPPKPKDTLMISRTPEVTCVVVDVSHEDPEVQFNWYVDGVEVHNAKTKPREEQFNSTFRVVSVLTVVHQDWLNGKEYKCKVSNKGLPAPIEKTISKTKGQPREPQVYTLPPSREEMTKNQVSLTCLVKGFYPSDIAVEWESNGQPENNYKTTPPMLDSDGSFFLYSKLTVDKSRWQQGNVFSCSVMHEALHNHYTQKSLSLSPGK
7 | – | – | – | 3.31 nM | 0.00227 s⁻¹ | 685000 M⁻¹ s⁻¹ | 7.33 nM | 0.00556 s⁻¹ | 759000 M⁻¹ s⁻¹ | IL2_V4_R38A Fc fusion protein (Fc fusion) APTSSSTKKTQLQLEHLLLDLQMILNGINNYKNPKLTAMLTFKFYMPKKATELKHLQCLEEELKPLEEVLNLAQSKNFHFDPRDVISNINVFVLELKGSETTFMCEYADETATIVEFLNRWITFCQSIISTLTGGGGSSNTKVDKRVEPKSCDKTHTCPPCPAPPVAGPSVFLFPPKPKDTLMISRTPEVTCVVVDVSHEDPEVQFNWYVDGVEVHNAKTKPREEQFNSTFRVVSVLTVVHQDWLNGKEYKCKVSNKGLPAPIEKTISKTKGQPREPQVYTLPPSREEMTKNQVSLTCLVKGFYPSDIAVEWESNGQPENNYKTTPPMLDSDGSFFLYSKLTVDKSRWQQGNVFSCSVMHEALHNHYTQKSLSLSPGK
8 | 76.7 nM | 0.00936 s⁻¹ | 122000 M⁻¹ s⁻¹ | – | – | – | – | – | – | IL2_V5 Fc fusion protein (Fc fusion) APTSSSTKKTQLQLEHLLLDLQMILNGINNYKNPKLTAMLTKKFYMPKKATELKHLQCLEEELKPLEEVLNLAQSKNFHFDPRDVVSNINVIVLELKGSETTFMCEYADETATIVEFLNRWITFCQSIISTLTGGGGSSNTKVDKRVEPKSCDKTHTCPPCPAPPVAGPSVFLFPPKPKDTLMISRTPEVTCVVVDVSHEDPEVQFNWYVDGVEVHNAKTKPREEQFNSTFRVVSVLTVVHQDWLNGKEYKCKVSNKGLPAPIEKTISKTKGQPREPQVYTLPPSREEMTKNQVSLTCLVKGFYPSDIAVEWESNGQPENNYKTTPPMLDSDGSFFLYSKLTVDKSRWQQGNVFSCSVMHEALHNHYTQKSLSLSPGK
9 | 29.5 nM | 0.004 s⁻¹ | 136000 M⁻¹ s⁻¹ | – | – | – | – | – | – | supMD IL-2 Fc fusion protein (Fc fusion) APTSSSTKKTQLQLEHLLLDLQMILNGINNYKNPKLTAMLTKKFYMPKKATELKHLQCLEEELKPLEEVLNLAQSKNFHFDPRDVVSNINVFVLELKGSETTFMCEYADETATIVEFLNRWITFCQSIISTLTGGGGSSNTKVDKRVEPKSCDKTHTCPPCPAPPVAGPSVFLFPPKPKDTLMISRTPEVTCVVVDVSHEDPEVQFNWYVDGVEVHNAKTKPREEQFNSTFRVVSVLTVVHQDWLNGKEYKCKVSNKGLPAPIEKTISKTKGQPREPQVYTLPPSREEMTKNQVSLTCLVKGFYPSDIAVEWESNGQPENNYKTTPPMLDSDGSFFLYSKLTVDKSRWQQGNVFSCSVMHEALHNHYTQKSLSLSPGK
